The text below walks through data of patent US20260116963A1 (GENERATE BIOMEDICINES, published 2026).

The target of assay [1] is T1, HIS-tagged human FcRn (human, UniProt P55899 24-297; P61769 21-119).
T1 construct: not shown: HIS tag
The experiment in a line: SPR (Biacore 8K+), pH 6.0, 25 C, steady-state fit.

The target in assay [2] is T1, HIS-tagged human FcRn. The experiment in a line: SPR (Biacore 8K+), antibody captured on anti-human Fab CM4 chip, HIS-tagged human FcRn 9.8-5000 nM as analyte, pH 6.0, 25 C, steady-state fit.
In assay [3] the target is T2, human IL-13 (human, UniProt P35225 25-146, limits assumed). The assay is described as follows: cell-based or functional assay.
The target in assay [4] is T2, human IL-13. The assay is described as follows: SPR (Biacore 8K+), antibody captured on anti-human Fc CM4 chip, human IL-13 0.6-10 nM as analyte, 37 C, 1:1 fit.
In assay [5] the target is T2, human IL-13. The assay is described as follows: cell-based or functional assay. This is another data set of the same source.
Assay [6] has as its target cynomolgus IL-13 (cynomolgus, UniProt Q0PW92 21-132). The assay is described as follows: cell-based or functional assay.
Assay [7] concerns the target human FcγRIIIa-F176 (human, UniProt P08637 17-208, biotinylated (site not stated)). The assay is described as follows: BLI (Octet RH96), biotinylated Fcγ receptor on streptavidin sensors, antibody at 10,000 nM.
The target in assay [8] is human FcγRIIIa-V176 (human, UniProt P08637 17-208, biotinylated (site not stated)). The description is as above.
The target in assay [9] is human FcγRIIIb-NA2 (human, UniProt O75015 17-200, limits assumed, biotinylated (site not stated)). The assay is described as follows: BLI (Octet RH96), biotinylated Fcγ receptor on streptavidin sensors.
For assay [10], the target named is human FcγRIIIb-NA1 (human, UniProt O75015 17-200, limits assumed, biotinylated (site not stated)). The description is as above.
The target of assay [11] is T3, human FcγRIIa-R167 (human, UniProt P12318 36-218, limits assumed, biotinylated (site not stated)).
T3 sequence (looked up): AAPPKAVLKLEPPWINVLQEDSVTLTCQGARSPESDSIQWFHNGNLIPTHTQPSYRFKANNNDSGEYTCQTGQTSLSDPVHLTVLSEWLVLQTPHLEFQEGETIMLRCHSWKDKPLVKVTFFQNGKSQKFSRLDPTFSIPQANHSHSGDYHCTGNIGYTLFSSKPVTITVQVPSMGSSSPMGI
The experiment in a line: BLI (summary of Example 8).

Assay [12] addresses T4, human FcγRIIb (human, UniProt P31994 46-217, limits assumed, biotinylated (site not stated)).
T4 sequence (looked up): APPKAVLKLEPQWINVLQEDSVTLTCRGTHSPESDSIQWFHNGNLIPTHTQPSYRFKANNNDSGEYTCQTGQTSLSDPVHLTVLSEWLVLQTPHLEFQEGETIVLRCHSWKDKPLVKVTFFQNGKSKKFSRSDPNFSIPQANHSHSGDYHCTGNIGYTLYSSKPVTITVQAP
The experiment in a line: BLI (summary of Example 8).

For assay [13], the target named is T5, human FcγRI (human, UniProt P12314 16-288, limits assumed, biotinylated (site not stated)). The assay is described as follows: BLI (summary of Example 8).
The target in assay [14] is T6, human FcγRIIa-H167 (human, UniProt P12318 36-218, limits assumed, biotinylated (site not stated)).
T6 sequence (looked up): T3 sequence (looked up) with R132H
The experiment in a line: BLI (summary of Example 8).

The target of assay [15] is T7, mouse IL-13 (mouse, UniProt P20109 19-131, limits assumed).
T7 construct: also called recombinant mouse IL-13
T7 sequence (looked up): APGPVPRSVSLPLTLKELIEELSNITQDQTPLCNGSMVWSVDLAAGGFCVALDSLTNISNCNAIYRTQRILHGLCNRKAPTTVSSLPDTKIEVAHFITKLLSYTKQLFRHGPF
The assay is described as follows: SPR (Biacore 8K+), antibody captured on anti-human IgG Fc chip, IL-13 as analyte, 25 C.

Assay [16] concerns the target T2, human IL-13. The assay is described as follows: KinExA, solution equilibrium, free antigen captured on Ref1-coated beads, 25 C.
Assay [17] addresses T3, human FcγRIIa-R167. The experiment in a line: BLI (Octet RH96), biotinylated Fcγ receptor on streptavidin sensors, antibody at 10,000 nM.
Assay [18] addresses T4, human FcγRIIb. The assay is described as above.
In assay [19] the target is T5, human FcγRI. Described as above.
The target in assay [20] is T6, human FcγRIIa-H167. The description is as above.
Assay [21] deals with T2, human IL-13. The assay is described as follows: cell-based or functional assay. The source holds these as a separate data set.
Assay [22] concerns the target T2, human IL-13. The experiment in a line: SPR (Biacore 8K+), antibody captured on anti-human pAb CM4 chip, human IL-13 0.6-10 nM as analyte, 37 C, 1:1 fit.

Substitutions are numbered along the chain they refer to.

T2 sequence (P35225 other isoform, or with tags, fused parts or gaps limits assumed): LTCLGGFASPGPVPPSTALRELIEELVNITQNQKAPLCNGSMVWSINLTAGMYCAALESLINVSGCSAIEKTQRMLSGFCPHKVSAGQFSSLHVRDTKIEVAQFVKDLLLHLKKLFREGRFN
cynomolgus IL-13, sequence (Q0PW92 entry or part of it): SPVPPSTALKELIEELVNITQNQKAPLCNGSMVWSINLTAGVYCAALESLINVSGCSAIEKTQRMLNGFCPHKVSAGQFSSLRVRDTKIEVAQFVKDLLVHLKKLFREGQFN
T1 sequence (P55899 24-297 limits assumed, chain 1 of 2): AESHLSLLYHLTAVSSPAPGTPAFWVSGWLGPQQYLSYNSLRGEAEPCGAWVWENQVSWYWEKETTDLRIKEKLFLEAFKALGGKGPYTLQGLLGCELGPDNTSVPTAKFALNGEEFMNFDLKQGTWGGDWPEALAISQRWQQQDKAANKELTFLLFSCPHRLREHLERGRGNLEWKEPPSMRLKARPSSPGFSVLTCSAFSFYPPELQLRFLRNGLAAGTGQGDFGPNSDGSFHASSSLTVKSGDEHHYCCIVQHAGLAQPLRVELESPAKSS
T1 sequence (P61769 21-119 limits assumed, chain 2 of 2): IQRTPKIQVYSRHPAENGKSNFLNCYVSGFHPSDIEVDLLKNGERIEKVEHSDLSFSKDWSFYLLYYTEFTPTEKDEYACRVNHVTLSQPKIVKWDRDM
human FcγRIIIa-F176, sequence (P08637 17-208 limits assumed): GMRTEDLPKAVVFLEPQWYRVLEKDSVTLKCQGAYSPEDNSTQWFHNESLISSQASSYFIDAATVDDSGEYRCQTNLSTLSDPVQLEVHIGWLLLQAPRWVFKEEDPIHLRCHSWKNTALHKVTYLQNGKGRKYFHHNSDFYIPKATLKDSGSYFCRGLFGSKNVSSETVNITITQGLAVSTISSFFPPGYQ
human FcγRIIIb-NA1, sequence (O75015 other isoform, or with tags, fused parts or gaps limits assumed): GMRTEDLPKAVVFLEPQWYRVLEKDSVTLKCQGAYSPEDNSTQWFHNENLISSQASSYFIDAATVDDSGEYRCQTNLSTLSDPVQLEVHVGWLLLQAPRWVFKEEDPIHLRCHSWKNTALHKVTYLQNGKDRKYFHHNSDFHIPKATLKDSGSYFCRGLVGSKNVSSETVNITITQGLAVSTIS
T5 sequence (P12314 16-288 limits assumed): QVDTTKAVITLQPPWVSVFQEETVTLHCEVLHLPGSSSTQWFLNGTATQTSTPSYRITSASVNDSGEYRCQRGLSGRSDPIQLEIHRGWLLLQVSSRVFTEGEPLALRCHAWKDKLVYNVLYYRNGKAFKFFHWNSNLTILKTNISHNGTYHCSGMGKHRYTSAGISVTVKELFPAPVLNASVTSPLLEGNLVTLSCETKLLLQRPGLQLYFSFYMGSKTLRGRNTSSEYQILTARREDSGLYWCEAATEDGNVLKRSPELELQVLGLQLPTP
human FcγRIIIb-NA2, sequence (O75015 17-200 N65S limits assumed): as the sequence (O75015 other isoform, or with tags, fused parts or gaps limits assumed) above, with R20S, N49S, D66N, V90I counted along it
human FcγRIIIa-V176, sequence (P08637 17-208 F176V limits assumed): as the sequence (P08637 17-208 limits assumed) above, with F160V counted along it

B1: AbAB (antibody, human IgG1, kappa)
heavy: QVTLRESGPALVKPTQTLTLTCTVSGASLSAYSVNWIRQPPGKALEWLAMIWGDGKIVYNSALKSRLTISKDTSKNQVVLTMTNMDPVDTATYYCAGDGYFPYAMDNWGQGSLVTVSSASTKGPSVFPLAPSSKSTSGGTAALGCLVKDYFPEPVTVSWNSGALTSGVHTFPAVLQSSGLYSLSSVVTVPSSSLGTQTYICNVNHKPSNTKVDKRVEPKSCDKTHTCPPCPAPEFEGGPSVFLFPPKPKDTLYITREPEVTCVVVDVSHEDPEVKFNWYVDGVEVHNAKTKPREEQYNSTYRVVSVLTVLHQDWLNGKEYKCKVSNKALPASIEKTISKAKGQPREPQVYTLPPSREEMTKNQVSLTCLVKGFYPSDIAVEWESNGQPENNYKTTPPVLDSDGSFFLYSKLTVDKSRWQQGNVFSCSVMHEALHNHYTQKSLSLSPGK
light: DIVMTQSPDSLSVSLGERATINCRASKSVDSYGNSYMHWYQQKPGQPPKLLIYLASNLESGVPDRFSGSGSGTDFTLTISSLQAEDVAVYYCQQNNEDPRTFGGGTKVEIKRTVAAPSVFIFPPSDEQLKSGTASVVCLLNNFYPREAKVQWKVDNALQSGNSQESVTEQDSKDSTYSLSSTLTLSKADYEKHKVYACEVTHQGLSSPVTKSFNRGEC
notes: same variable regions as AbG; also called Antibody AbAB
Consider B1, for which, in assay [1], the “fold higher affinity than Ref2” value is 6 fold. Moreover, the Kd in assay [2] came to 129 nM; in assay [4], 0.00722 nM. For the same molecule, the “Mean IC50 (nM) Donor 1, Phospho-STAT6 assay in human CD14+ monocytes” value in assay [3] was found to be 34.9 nM. For the same molecule, the “Mean IC50 (nM) Donor 2, Phospho-STAT6 assay in human CD14+ monocytes” value in [3] is 33 nM. For the same molecule, in assay [3], the “Mean IC50 (nM) Donor 3, Phospho-STAT6 assay in human CD14+ monocytes” value was determined as 37.7 nM. In addition, the koff in assay [4] was determined as 4.85e-06 s⁻¹. Besides, the on-rate (kon) in [4] came to 676000 M⁻¹ s⁻¹. The “Mean IC50 (nM), HEK-Blue IL-4/IL-13 assay with 3.7 nM IL-13” value in assay [5] amounted to 0.113 nM. In addition, in assay [6], the “Mean IC50 (nM) Donor 1, Phospho-STAT6 assay in cynomolgus CD14+ monocytes” value turned out to be 18.8 nM. The “Mean IC50 (nM) Donor 2, Phospho-STAT6 assay in cynomolgus CD14+ monocytes” value in assay [6] was 15.1 nM. Besides, in [6], the “Mean IC50 (nM) Donor 3, Phospho-STAT6 assay in cynomolgus CD14+ monocytes” value came out at 18.1 nM. For the same molecule, the binding result in [7] is “binds”; in assay [8], “binds”; in [9], “no binding (tested: 10,000 nM)”; in assay [10], “no binding (tested: 10,000 nM)”; in [11], “binds”; in assay [12] it was “binds”. Moreover, the binding result is on record as “binds” in [13], “binds” in assay [14] and “no binding” in assay [15].

B2: Ref2 (antibody, human IgG4 S228P, kappa)
heavy: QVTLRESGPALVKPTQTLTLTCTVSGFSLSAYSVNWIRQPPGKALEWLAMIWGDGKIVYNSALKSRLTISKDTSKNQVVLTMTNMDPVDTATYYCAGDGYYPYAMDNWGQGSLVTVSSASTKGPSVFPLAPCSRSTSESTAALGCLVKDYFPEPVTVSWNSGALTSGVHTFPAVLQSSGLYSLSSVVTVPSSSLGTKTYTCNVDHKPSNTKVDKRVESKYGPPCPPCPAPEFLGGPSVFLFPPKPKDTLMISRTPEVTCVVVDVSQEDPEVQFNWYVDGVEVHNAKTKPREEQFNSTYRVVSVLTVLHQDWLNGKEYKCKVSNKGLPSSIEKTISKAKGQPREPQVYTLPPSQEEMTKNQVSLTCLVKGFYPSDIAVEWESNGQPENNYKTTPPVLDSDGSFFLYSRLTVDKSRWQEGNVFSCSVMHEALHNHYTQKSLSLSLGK
light: B1 light with Y36F
notes: hIgG4; copies: 2 + 2
B2: the figures for the equilibrium dissociation constant (Kd) in [2], in assay [16] and in assay [22] were 734 nM, 0.00909 nM and 0.0512 nM, respectively. Moreover, the off-rate constant (koff) in [16] stood at 9.76e-06 s⁻¹; in assay [22] it was 3.22e-05 s⁻¹. Besides, the association rate constant (kon) in assay [16] worked out at 1.07e+06 M⁻¹ s⁻¹; in [22], 695000 M⁻¹ s⁻¹. Moreover, the binding result is listed as “binds” in assay [7]; “binds” in [17]; “binds” in [18]; “binds” in assay [19]; “binds” in assay [20]; “no binding (tested: 10,000 nM)” in [9]. Also, the binding result in assay [10] was “no binding (tested: 10,000 nM)”; in assay [15], “no binding”. Further, in [21], the “IC50, HEK-Blue IL-13Ra1/IL-4Ra STAT6-SEAP reporter assay” value is 0.277 µg/mL.
